The chains are these.
B1: Hairpin Ribozyme (parent)
chain: GUCCUCUUUCACGUGCGCGUGAAAGAGAGAAGUGAACCAGAGAAACACACGUUGUGGUAUAUUACCUGGUA

In the data set the parent is B1. The data set can be described thus: self-cleavage, relative activity (ratio to wild type); higher = more cleavage; co-transcriptional.
U63G C66A: the self-cleavage was found to be 0.119.

For the variant U63G C66U, the self-cleavage was 0.109. With G57A U63A, the self-cleavage came out at 0.131. Then G57A A61G, with 0.169; and G57A A61U, with 0.143. Then G57A A61C, with 0.155; and U58C A71U, with 0.935. The value for U58C A71G was 1.31; that for U63A A64G was 0.0955; that for G57C C65U was 0.192. For the variant G56C A71G, the self-cleavage is 0.28.

Regarding A61G U67A, the self-cleavage is 0.328.

In the case of A59G, the self-cleavage came to 0.17. Then A59C, with 0.171; and A59U, with 0.157. The value for G56A A71U was 0.142; that for U58C A59U was 0.192; that for C66G G68C was 0.0397. The value for C66G G68U was 0.0439.

Take A59G G69C: the self-cleavage worked out at 0.161. Then U60A A61C, with 0.133. As to U60A A61U, the self-cleavage was found to be 0.17. For U60A U62A, the self-cleavage was 0.0542. The value for U60A U62C was 0.373. As to U60A U62G, the self-cleavage came out at 0.0972. Then U58C A61G, with 0. The value for G56U G68A was 0.183; that for G56U G68C was 0.157; that for U60A A71G was 0.839. The value for A59C A64C was 0.111. As to A59C A64G, the self-cleavage turned out to be 0.1.

Take U62A U70G: the self-cleavage worked out at 0.16.

As to G56U U58C, the self-cleavage amounted to 0.0906. Turning to U63C A64C, the self-cleavage was 0.224. Then U62G C66G, with 0.0965. Then U58A A64G, with 0.247; and U58A A71C, with 1.19; and U58A A71U, with 0.391. Then C65G U67G, with 0.0652; and U58C U63C, with 0.178. With U63G A71U, the self-cleavage was determined as 0.117. As for U62G C65U, the self-cleavage was determined as 0.0799. Then U63C C66A, with 0.23. With A61U U67A, the self-cleavage was found to be 0.178. Then A61U U67C, with 0.175. Then A61U U67G, with 0.129; and C66G U67C, with 0.219; and G57A G69A, with 0.122.

Consider G57U U67C, for which the self-cleavage was found to be 0.116. Then G57U U67A, with 0.166; and U55G G56U, with 0.211; and G57C U63A, with 0.165. Take G57U U60A: the self-cleavage stood at 0.114. The value for G57U U60C was 0.246; that for A61G U62G was 0.128.

As for G57C A59U, the self-cleavage was 0.159. The value for G57C A59G was 0.244; that for G57U U58C was 0.278. Take G57U U58G: the self-cleavage amounted to 0.0777. Then U58A C66U, with 0.335. The value for U62G G68C was 0.186. The value for A64G C66G was 0.226. For U60G A61U, the self-cleavage was determined as 0.259. With C65G U70G, the self-cleavage stood at 0.19. For the variant C65G U70C, the self-cleavage was 0.189. The value for A64U U67G was 0.13.

As for A59U A64U, the self-cleavage stood at 0.191. With G56A G57U, the self-cleavage amounted to 0.176. For U62C U70G, the self-cleavage was determined as 0.126. The value for A64G G68U was 0.19. With A64G G68C, the self-cleavage came out at 0.122. With C66A U67C, the self-cleavage came to 0.159. Then G56C U70G, with 0.0624; and A59G U63C, with 0.134. The value for A61G G68C was 0.195.

In the case of A61C G68U, the self-cleavage came to 0.278. The value for A61C G68A was 0.116. Regarding C65A C66G, the self-cleavage is 0.0953.

With U62G U67G, the self-cleavage turned out to be 0.127. With U62G U67C, the self-cleavage stood at 0.133. For G56C A64G, the self-cleavage was determined as 0.148. Then G56C A64C, with 0.104. Then A64C U67G, with 0.147; and U63A A71C, with 0.287. The value for U58A G68C was 0.194.

Take U60G U67G: the self-cleavage worked out at 0.202. Then U58C U62A, with 0.24. In the case of G56C U62G, the self-cleavage came to 0.129. The value for U63A U70C was 0.36; that for U58C C66G was 0.154. Then U58C U67G, with 0.241; and A64U A71U, with 0.305. The value for U60A C65U was 0.301; that for U60A C65G was 0.254; that for A64C U70G was 0.127. For G57A A59G, the self-cleavage turned out to be 0.171. Then G57A A59C, with 0.142; and U58A U60G, with 0.646; and U58A U60A, with 0.509. Then U60G G69C, with 0.317. The value for U60G G69A was 0.0995. As for A61C U70C, the self-cleavage worked out at 0.169.

For the variant C66A U70G, the self-cleavage was 0.176. The value for C66A U70C was 0.305; that for A61G U70G was 0.156; that for A61C C65G was 0.189. Then G57C G69A, with 0.135. The value for G57C G69C was 0.142; that for U62C C65U was 0.162; that for U62C C65A was 0.212. As for U58A U63C, the self-cleavage is 0.307. Then U58A U63G, with 0.194; and C66A G69C, with 0.239. Then C66A G69U, with 0.156; and U58A A59G, with 0.122; and A61C U62C, with 0.166. Consider U60C U62C, for which the self-cleavage is 0.569.

Regarding U60C U62A, the self-cleavage turned out to be 0.253.

Turning to G56U U67G, the self-cleavage turned out to be 0.12.

G56U U67C: the self-cleavage amounted to 0.111. The value for G56U U67A was 0.23. The value for U62A U67G was 0.173. The value for U60C G69U was 0.0645; that for G57U U63A was 0.146.

As for G56U U63C, the self-cleavage came out at 0.169. The value for U62C A71G was 0.236; that for U62C A71U was 0.277.

For the variant A64C C65G, the self-cleavage came to 0.161. The value for A59C U67G was 0.24; that for A59C U63A was 0.169.

For the variant A59U U60A, the self-cleavage stood at 0.195.

For the variant U55G U60G, the self-cleavage was found to be 0.185. U55G U60A: the self-cleavage worked out at 0.0917.

Take U58G A71U: the self-cleavage came to 0.455.

U58G A71G: the self-cleavage was determined as 0.935.

On to U58G A71C, for which the self-cleavage turned out to be 1.07. As to G57A A64G, the self-cleavage stood at 0.131. Then G57A A64C, with 0.118. Then U60G G68C, with 0.127; and U55G U63C, with 0.0583.

Turning to U55G G57A, the self-cleavage turned out to be 0.0886. Then G56A G68C, with 0.0908; and G56A G68U, with 0.146. Then C65A U70A, with 0.686; and U62G U70A, with 0.163; and A59C G69C, with 0.216. Consider A59U C65A, for which the self-cleavage came to 0.19. Then G56A C65U, with 0.104; and U62A C66U, with 0.143.

U60G A64C: the self-cleavage came out at 0.186.

With U60G A64G, the self-cleavage was 0.335. Then U60G C66G, with 0.261; and C65U U67A, with 0.309. The value for G57U A59C was 0.188; that for G57U A59G was 0.231. Then U63C U70G, with 0.248; and A59C U62A, with 0.159.

As for G57U A61G, the self-cleavage came to 0.296.

Regarding G56C G68C, the self-cleavage is 0.236. As to A64U U70A, the self-cleavage came to 0.257. The value for G57U A71C was 0.738; that for U60A C66A was 0.365. Then U60A C66U, with 0.274. As for U60G, the self-cleavage turned out to be 0.615. The value for U60C was 1.16; that for U60A was 0.849. For C65G A71U, the self-cleavage is 0.219.

These data come from the RNAGym collection of RNA variant scans (doi:10.7554/elife.80360).
